These results are taken from PMC7617732 (2024).

What all share (experiment): SPR
(In general: SPR reads the build-up and loss of mass on a sensor chip optically.)

The target of test [1] is 3FTx-L8.
The target in test [2] is m7.
Test [3] concerns the target m6.
Test [4] concerns the target T1, 3FTx-L2 (recombinant long-chain three-finger α-neurotoxin variant).
T1 chain: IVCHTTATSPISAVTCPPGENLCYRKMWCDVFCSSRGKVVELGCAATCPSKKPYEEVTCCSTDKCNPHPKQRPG

Test [5] deals with T2, 3FTx-L15 (recombinant long-chain three-finger α-neurotoxin variant).
T2 chain: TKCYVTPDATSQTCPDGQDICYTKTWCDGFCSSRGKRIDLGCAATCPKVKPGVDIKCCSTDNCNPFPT

A word on the Kd: it is the equilibrium constant for the complex coming apart.

B1: 95Mat5 (human IgG) (antibody, V domains shown)
VH: QVQLVQSGAEVKKPGSSVKVSCKASGGTFSSYAISWVRQAPGQGLEWMGGYIPIFGTANYAQKFQGRVTITADESTSTAYMELSSLRSEDTAVYYCARIPLRWYESGPYESGVFDYWGQGTLVTVSS
VL: not shown
As to B1, the Kd is less than 0.01 nM in test [1]; 0.24 nM in test [2]; 0.11 nM in test [3]; 0.72 nM in test [4]; 0.61 nM in test [5].
